Source: the domain aggregation screens of Martell et al. (2025)

Assay: soluble fraction after stress (log2 fold change); higher = more stays soluble; pooled small domains, quantitative proteomics
Details: stress: 75 degC
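Further: 20 min heating vs room temperature control held 20 min.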

Sequence | soluble fraction (log2)
HMKAMIIVMKPGADMATISKVLKTIETNGFKPHLSKGEETTVIGVIGDERKLNPDIFSTLEGVERIVPVA | 0.251
HMKASTRELLDFVLSQRGVSTASVAKALGISVQNASTRLKKLSNEGLIIRSEASSLTGGIEFLYS | -0.822
HMKDASEFLGAKGKTITPLRPTGAAVINGEKVDVLAEGEFIPKNAEIVVIKVEGSKIIVRNANN | -0.061
HMKDDLTWSEGLMPNVVGMGLRDAMFMLENSGLRVNYSGRGKVTRQSPQPGVRIKRGATVAIELRL | -1.89
HMKDEHYLYIKARVDNGDYPHLSELKSAEEIELVMPKLLQDGIVEFNKETGEYTIGEDVKAEIERL | 0.12
HMKDESYALGTRLLSHALGKTKLEDLAQEKIDEVVQQSGNKTLEQLLTNIGLGNALSIGIARQLT | 0.345
HMKDGAKYFQLFGLLKNEINRGIYQSGQKIPGENELAEKYGMSRQTVRQALSLLEQESLIERRQGSGTYVR | -0.121
HMKDGMRVYITYHDSEEEPEKPIGDGTTKGWHTNSTASVVWISQKVAESADLGIWGDPIRIKGEA | 0.0608
HMKDIIVDPQGQYNHPGVPTRIPSSDITMKGVGYPVLGIADNGQKQMMQPGQDYKFPGAKYVDEYPQM | 0.185
HMKDIIVLGAIQAGIKKFDKIQKMTQIEPEELNSILEQLENRGFIQVAEKSGLLGKKIEILVTEKGSNEVD | 0.223
HMKDITAVISKKKGRDYYYIIVSYHLSNGKRVQKWIKTEFSVNGNNKRKLEQKRIEILQEWQNKLV | -1.04
HMKDITMPNVYGLTLEMAEQTLKQSELSIFKAMKINSDTVEEGKVIYTDPKANSIVSGDQEITIYVSDGP | 0.411
HMKDKSEKTKKLIFEAAFKIIREEGFSELSANKIAQVASVSKGVIFHHFSQMDDLYLFMLDTL | 0.23
HMKDLTAIKGVGEFFAKKLSQAGYQSITNLTDVNAKRLQADTGIPLPIAARIIKEAQSLIAET | 0.157
HMKDMWNRIRRARLSAGLSQAALAKETGVRRSAVTQWEKEGGTSPSVANLARIAVVTQVHFEWLATGRGPG | -2.76
HMKDNIRSILEDIPNIGPGRRRALLKHFGSIEAIRRASLEDLIKVDGMNRNAALSIMEYFGM | -0.286
HMKDPSLEHIDALAGKPFQAFPGQDHRAHITAHLNFMSTNMVRNNPSIMAAIQKNILEHISLMAQEQIQL | -1.42
HMKEETYHYTVRYVTDGGDILASYEGKATKDSVFFPEVKTFDGYTAVRGEEPMFHLVSDHAVFQIVYQKNG | -1.17
HMKEFEINSQWKPSLEVYDILSVKGGISRNFIEDSIPEFVLYWRGRGDKSNTWDSKFVQHVKRQWNFYSGL | -2.43
HMKEGGREEMSEIVERYGDERALMANITSVQNLMNNMKWTLDQALDALGIKGKERTLITQQLQ | -0.0628
HMKEIATKSELTYFIQRLLDLLEETNFFNPEERKKAMINHIEAIFRRNNLTLQELNMLHGIITSITR | -2.45
HMKEIGGGPASKFIYYLIKTKHPIEQGDLIGITHLPRRTVQSAIEDLKNQGFIIERNSLDDSRRKVYYPVK | -0.943
HMKEIKRLVELSPGRYFIEGATNIRVFGINGSLLLDTKGETVDLSDLAKGVYLLKTDGVTYKVL | -0.506
HMKEIYIDRGKEALEKELRKRKIPFQEFLSKENTNLLFDTLKIPSHDLEELYLEIGNGKHAASTVVNTVY | 0.391
HMKEKQLMTLDDDLYAFLLKHPGIIQKDIYNHFPYDIKGVIADTLYAWDKTGKIKRTKSGNSYIIYT | -0.228

Sequence | soluble fraction (log2)
HMKELAADFSRRIINARTSKGWSQADLGQRMAETINVIKSAESGKPPTDAVVKKFETVLGVILM | -1.06
HMKELLDRIFLHETMRRVSQDATITFSKKVYEVPQKFIGRQVTVQYDPEDLSRVYVKDLNFPEPVMVYPVQ | -1.59
HMKELTPEQLQHNWNNLRQFIDVNFSGDRLGGLNKMYDYFEERMMFAPASGKQHYHNAFAGGYVEHVMHV | 0.209
HMKEPGFAPPVRALAAAPITVLAQVAGTNPGEIRARLRAAGYPVASDQQSVQSLVGGDLKAQIGVLNRILA | -0.286
HMKEQIKVPDLSNKTPEEAKKELNTLGLGARKGGEESSDTVEEGLITRQEPAAGEQVDKNTQILFYVSTGK | 0.901
HMKEQLLLGFKVRSLRGIDLGFVKFIEGSAFQSFLKTDLTIIPNVPNYVKKIDNVKKIILVDWESD | -2.8
HMKEQYTELDWDKVQVNDKVMIKDLNQQVTILSLPDKNNALYIQMGMIKTKVKKEKLAVYNPQLA | -2
HMKERVSWDERLERFAKHITENESLPYPSSKEYAWFEENKALYDAGELEPVRAQSFAFLLKIMRRMNL | -1.7
HMKETIIPELLQNELDKNSELNDKFNTFSPYKQREFIEYIITAKQEKTQISRLQKVILMILEGRGLNN | -1.89
HMKEVELENMIKAKGFKDAAVLVDERSVTVIVESERLAAGDSASIKELVSRGTGVDPQNVVII | -0.31
HMKEYPEVITTSRLNVRTGPGTGYQRLGTLDQNLRVLVLTRQQGWAQIRGMLNGETVIGWVNDYYLQAID | -2.54
HMKFINISIDKSGNLFINKKSIKFQDLKYNVVNLVDESKNLVVLNADENISHGYVISVLDVLRSIDGLKLA | -2.13
HMKFNEKQNEVRIAIMNFIIDNKRPFHMKQDGYDALEGITLSGRHEFQDILDVLHSRDGFSADEEGNINF | -1.09
HMKFPIITAKQDSDGKFYWAQTTDKGKTYTFILDGDGKKFPIGGTMPDVKINENGYWSVNGSSTGVLANDL | 0.368
HMKFSVEEQFKKSFPKNTYETFSETSLKGVYEVYNGKQVYYYLPVNDVLLLGSIVTKDGKNLTQESNSKK | -0.279
HMKGIVFTEFLDLVEERFGLEMVDAIISQSKLESKGVYTSIGTYSFSELLQLLQNLKIQTGISIDNLLLI | -0.961
HMKGKIYFFEEGVDRVGGVERVISTLANEFSKKYKVNVISFYKTRKETFFKYNSDIDITYLSK | 0.152
HMKGLDRATNKALLLKHIIDNGSTGTRFSELRQVLPSLTRGSISSLLIELRSEGKIHSIGVTRNARWYPTE | -1.79
HMKGLKERLLYFIEYKGLPVQMFEKIVGLSNAAVSKMGDNTRRSTIDKISKSFPELDVNWLLTGQGEMLSY | -0.942
HMKGPAFAKIDLTQLPAGLTSFLNTNAAGFKLDYAVAITKDSVIIEYHVGVTIGTAKKEFHLDPNFQLLP | -0.499
HMKGPLKDLGPDPVTGKSILVKDGKFGTYVTDGETNATLRRGDIVELLTLERGMELLAEKRARATQ | 0.0771
HMKGTVKFFNESKGFGFITEEGTNKEHFVHVSGLVDEIRENDEVEFDLQDGRKGLNAVNVRV | 0.363
HMKGVENLSDIDIQKALNNARANLSKNKAKLEQAGDDEKKKASALAMIQKWETTKKAIEEEIEARKKKSLN | -0.491
HMKHAIKEKIRNEYVHGYLNEEGYRVMPTLDELIRKYEVPASSTYRASSKEGWKKQKEAFLEHLRGEIDA | -0.492
HMKHFFIIAGGKIEDAFAIEVLKGFAEKTVIAADSGMEFLRRNEIVPQVIIGDFDSVSKETLEWFQKK | -0.751
